Assay results: patent US20230355720A1, “PHARMACEUTICAL COMPOSITION FOR PREVENTING OR TREATING BONE DISEASES, COMPRISING TRIPLE AGONIST OR CONJUGATE THEREOF HAVING ACTIVITY WITH RESPECT TO ALL OF GLUCAGON, GLP-1 AND GLP RECEPTORS” (HANMI PHARM. CO., LTD., priority 2020, published 2023)
Bridge positions count the residues as written; N and C are the ends. Square brackets hold non-standard residues; d marks the D form. Ends that are not written are not given here. * marks the point of attachment. Acetyl(2-(4-imidazolyl)) = O=C(Cc1c[nH]cn1)*; Aib = CC(C)(N)C(=O)O

T1: human GIP receptor (human, UniProt P48546 22-466)
T1 sequence (looked up): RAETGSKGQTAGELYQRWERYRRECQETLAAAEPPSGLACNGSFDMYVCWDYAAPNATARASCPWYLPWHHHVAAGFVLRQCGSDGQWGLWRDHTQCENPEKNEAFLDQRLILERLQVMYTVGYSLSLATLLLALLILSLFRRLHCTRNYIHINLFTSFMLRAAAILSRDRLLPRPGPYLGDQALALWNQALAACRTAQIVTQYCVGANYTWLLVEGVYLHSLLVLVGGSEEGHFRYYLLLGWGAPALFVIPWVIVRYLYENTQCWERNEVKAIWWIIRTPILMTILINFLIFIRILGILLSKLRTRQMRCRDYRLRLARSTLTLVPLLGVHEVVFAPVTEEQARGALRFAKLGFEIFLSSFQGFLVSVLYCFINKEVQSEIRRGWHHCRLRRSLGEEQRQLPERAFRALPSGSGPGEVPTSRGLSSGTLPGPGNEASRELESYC


Key:
Test in all cases: cell-based or functional assay
human GLP-1 receptor = human GLP-1 receptor (human, UniProt P43220 24-463)
human GCG receptor = human GCG receptor (human, UniProt P47871 26-477)
human GCG receptor, sequence (P47871 26-477): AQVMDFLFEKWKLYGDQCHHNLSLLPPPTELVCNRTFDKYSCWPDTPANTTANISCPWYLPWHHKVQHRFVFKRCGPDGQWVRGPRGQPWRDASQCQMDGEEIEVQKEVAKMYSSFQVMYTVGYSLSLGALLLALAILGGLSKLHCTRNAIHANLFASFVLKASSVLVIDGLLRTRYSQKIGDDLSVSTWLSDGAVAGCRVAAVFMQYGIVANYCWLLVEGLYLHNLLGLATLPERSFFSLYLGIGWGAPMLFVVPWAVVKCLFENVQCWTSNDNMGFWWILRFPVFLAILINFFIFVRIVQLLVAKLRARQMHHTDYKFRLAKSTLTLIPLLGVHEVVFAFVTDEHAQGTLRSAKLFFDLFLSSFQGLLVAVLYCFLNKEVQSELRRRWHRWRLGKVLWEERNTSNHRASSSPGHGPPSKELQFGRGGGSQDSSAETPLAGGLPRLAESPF

human GIP receptor = molecular target: T1, human GIP receptor

Binder	In vitro activity (%) compared with native peptide, vs GLP-1 (human GLP-1 receptor) [%]	In vitro activity (%) compared with native peptide, vs Glucagon (human GCG receptor) [%]	In vitro activity (%) compared with native peptide, vs GIP (human GIP receptor) [%]
[Acetyl(2-(4-imidazolyl))]GQGTFTSDLSIQYEEEAQQDFVEWLKDTGPSSGAPPPSHG (not fully specified) [triple agonist of SEQ ID NO: 20]	< 0.1	< 0.1	< 0.1
Y[Aib]QGTFTSDYSKALDEKAAKDFVNWLLDHHPSSGQPPPSC (bridge 16-20) [triple agonist of SEQ ID NO: 99]	20.9	14.9	57.7
H[Aib]QGTFTSDYSKYLDEKAAKEFVQWLLNTC (bridge 16-20; not fully specified) [triple agonist of SEQ ID NO: 29]	38.5	6	< 0.1
Y[Aib]QGTFTSDYSKYLDEKRAKEFVQWLLCHHPSSGQPPPS (bridge 16-20) [triple agonist of SEQ ID NO: 95]	2.1	0.4	< 0.1
Y[Aib]QGTFTSDYSKCLDEKRAKEFVQWLLDHHPSSGQPPPS (bridge 16-20) [triple agonist of SEQ ID NO: 22]	20.1	140	59.7
Y[Aib]QGTFTSDYSKALDEKAAKEFVQWLLDQHPSSGQPPPSC (bridge 16-20) [triple agonist of SEQ ID NO: 100]	42.2	12.7	118
Y[Aib]QGTFTSDYSKYLDECRAKEFVQWLLAQKGKKNDWKHNIT (bridge 16-20; not fully specified) [triple agonist of SEQ ID NO: 23]	4.01	9.3	< 0.1
[Acetyl(2-(4-imidazolyl))]GEGTFISDLSKYMDEQAVQLFVEWLMAGGPSSGAPPPSHG (not fully specified) [triple agonist of SEQ ID NO: 12]	0.4	< 0.1	< 0.1
H[Aib]QGTFTSDCSKYLDERAAQDFVQWLLDGGPSSGAPPPS (not fully specified) [triple agonist of SEQ ID NO: 25]	82.6	0.1	< 0.1
Y[Aib]QGTFTSDYSKYLDECRAKEFVQWLLDHHPSSGQPPPS (bridge 16-20) [triple agonist of SEQ ID NO: 21]	17.8	267	22.7
H[Aib]QGTFTSDCSKYLDSRAAQDFVQWLLDGGPSSGAPPPS (not fully specified) [triple agonist of SEQ ID NO: 26]	64.5	0.2	< 0.1
[Acetyl(2-(4-imidazolyl))]GQGTFTSDLSIQYDSEHQRDFIEWLKDTGPSSGAPPPSHG (not fully specified) [triple agonist of SEQ ID NO: 19]	< 0.1	< 0.1	< 0.1
Y[Aib]QGTFTSDYSKALDEKAAKEFVNWLLDHHPSSGQPPPSC (bridge 16-20) [triple agonist of SEQ ID NO: 98]	28.1	8.2	47.1
Y[Aib]QGTFTSDYSKYLDEKRAKEFVQWLLDHCPSSGQPPPS (bridge 16-20) [triple agonist of SEQ ID NO: 96]	34.4	195	5.2
Y[Aib]QGTFTSDYSKALDEKAAKDFVNWLLDQHPSSGQPPPSC (bridge 16-20) [triple agonist of SEQ ID NO: 102]	23.3	29.5	58
H[Aib]QGTFTSDYSKYLDEKRAQEFVCWLLAQKGKKNDWKHNIT (not fully specified) [triple agonist of SEQ ID NO: 28]	17.2	1.6	< 0.1
Y[Aib]QGTFTSDYSKYLDECRAKEFVQWLKNGGPSSGAPPPS (bridge 16-20) [triple agonist of SEQ ID NO: 24]	41.2	9.3	< 0.1
Y[Aib]QGTFTSDYSKALDEKAAKEFVNWLLDQHPSSGQPPPSC (bridge 16-20) [triple agonist of SEQ ID NO: 101]	23.2	13.9	40.1
[Acetyl(2-(4-imidazolyl))]GQGTFTSDYSIQLDEIAVRDFVEWLKNGGPSSGAPPPSHG (not fully specified) [triple agonist of SEQ ID NO: 14]	28	< 0.1	< 0.1
H[Aib]QGTFTSDYSKYLDERACQDFVQWLLDQGGPSSGAPPPS (not fully specified) [triple agonist of SEQ ID NO: 27]	83.1	0.8	0.9
[Acetyl(2-(4-imidazolyl))]GQGTFTSDLSKQMDEERAREFIEWLLAQKPSSGAPPPSHG (not fully specified) [triple agonist of SEQ ID NO: 17]	0.2	< 0.1	< 0.1
H[Aib]QGTFTSDVSSYLLGQAAKQFIAWLVKGGGPSSGAPPPSC (not fully specified) [triple agonist of SEQ ID NO: 3]	1.8	< 0.1	< 0.1
[Acetyl(2-(4-imidazolyl))]GQGTFTSDLSKQMDSEAQQLFIEWLKNGGPSSGAPPPSHG (not fully specified) [triple agonist of SEQ ID NO: 16]	2.1	< 0.1	< 0.1
Y[Aib]QGTFTSDYSKYLDEKRAKEFVQWLLDCHPSSGQPPPS (bridge 16-20) [triple agonist of SEQ ID NO: 97]	10.5	62.8	2.6
H[Aib]QGTFTSDVSSYLDGQAQKEFIAWLVKGC (not fully specified) [triple agonist of SEQ ID NO: 2]	5.9	< 0.1	< 0.1
[Acetyl(2-(4-imidazolyl))]GEGTFTSDLSKYLDSRRQQLFVQWLKAGGPSSGAPPPSHG (not fully specified) [triple agonist of SEQ ID NO: 11]	1.4	< 0.1	< 0.1
[Acetyl(2-(4-imidazolyl))]GQGTFTSDLSKQMDSERAREFIEWLKNTGPSSGAPPPSHG (not fully specified) [triple agonist of SEQ ID NO: 18]	< 0.1	< 0.1	< 0.1
[Acetyl(2-(4-imidazolyl))]GEGTFISDYSIQLDEIAVQDFVEWLLAQKPSSGAPPPSHG [triple agonist of SEQ ID NO: 13]	< 0.1	< 0.1	< 0.1
